Laboratory results reported in publication doi:10.1101/2021.03.19.436134.
“And” between values parts separate entries of the source, which are not always exact repeats. Equal values may be shown once. One block for each substance: values may come before it.

Tests used:
[1] = target: PfArlH^S109C, single cysteine mutant of Pyrococcus furiosus ArlH labelled with Atto550 and Atto647N, non-phosphorylated (Pyrococcus furiosus); assay: single-molecule TIRF photobleaching step counting
[2] = target: biotinylated PfArlI, ArlI motor ATPase of Pyrococcus furiosus with AviTag, unlabelled, immobilised (Pyrococcus furiosus); assay: single-molecule TIRF photobleaching step counting
[3] = target: SaArlH, ArlH of Sulfolobus acidocaldarius, His-tagged, non-phosphorylated (Sulfolobus acidocaldarius); assay: BLI
[4] = target: labelled, biotinylated PfArlI^C290S/T411C (Pyrococcus furiosus); assay: single-molecule TIRF photobleaching step counting

stoichiometry N [1]: 6 and 3
stoichiometry N [2]: 1
Substance: PfArlH^S109C, single cysteine mutant of Pyrococcus furiosus ArlH labelled with Atto550 and Atto647N, non-phosphorylated (natural protein)

Kd [3]: 638 nM
Substance: SaArlI, ArlI motor ATPase of Sulfolobus acidocaldarius (Strep-SaArlI) (enzyme)

stoichiometry N [4]: 3 and 2 and 6
Substance: labelled, biotinylated PfArlI^C290S/T411C (enzyme)
